Experimental data: the supplement of paper PMC10126150
± gives the standard deviation of the averaged measurements.

System: ATP
Assay: switch fluorescence ratio, 500 uM ATP over buffer (Cy3 cluster intensity, sum of 5 cycles each) (fold (ratio)); higher = stronger signal-on switching upon ATP binding; sequences stand for … in TCGTCGGCAGCGTCAGATGTGTATAAGAGACAGTTTTTTTTTTTTTTTTTTTTTTTTT…TC
Conditions: aptamer strand: ATP DNA aptamer (quencher-CACCTGGGGGAGTATTGCGGAGGAAGG + anchor), 100 nM annealed; ATP concentration: 500 uM
Method in brief: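 The fluorescence ratio divides summed target-cycle Cy3 intensity by summed buffer-cycle Cy3 intensity for each cluster and is averaged per switch-domain sequence. Cy3-labelled switching-strand clusters on a modified Illumina MiSeq flow-cell were annealed to 100 nM quencher-labelled ATP aptamer, then imaged in selection buffer and again after 15 min with 500 uM ATP at 22 °C. Five such cycles were run, with NaOH stripping and re-annealing between them, and clusters outside 100-1000 RFU were excluded.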
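Also: ATP exposure 15 min at 22 °C before imaging.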

Sequence | switch fluorescence ratio
GGGGTTTTGT | 1.01 ± 0.011
TGTGTTACTT | 0.9988 ± 0.001
TTTTTTATCT | 1.05 ± 0.07
GGATTTTGGG | 1.01 ± 0.028
GCTAGCTCAG | 1.023 ± 0.008
TGAAAAATGG | 1.01 ± 0.031
CGCCTCATTT | 1 ± 0.03
TTGTGTAGGG | 1.01 ± 0.017
AGGCGGTGTG | 0.973 ± 0.036
CTATGGAGTG | 0.9928 ± 0.0039
GGACTGAGGA | 1.002 ± 0.01
TTCCCCATTG | 1.09 ± 0.023
AATAATCTTT | 1.02 ± 0.013
GGGCTCCATG | 0.9825 ± 0.0044
GCTCAAGGTA | 1.006 ± 0.0044
GAGGTTGCTG | 0.987 ± 0.026
AATAATGGAA | 0.987 ± 0.015
CTGGTGGCCG | 1 ± 0.028
CACGCGTGGT | 0.996 ± 0.019
ATGTGGGGGG | 0.992 ± 0.039
GCGTGCAATG | 1.026 ± 0.0018
GCCTTCATGG | 0.98 ± 0.044
GTTCCGCGGT | 1.371 ± 0.0055
ACAGACTATA | 1.094 ± 0.0097
TTTTATGC | 1.01 ± 0.061

Sequence | switch fluorescence ratio
CTTGTATAGT | 0.9947 ± 0.0062
AGAATTTAAA | 0.992 ± 0.032
AAGTATAGTT | 1.04 ± 0.056
GGGTTTGTAT | 0.979 ± 0.046
TACACGCCTT | 1.05 ± 0.015
TTAAGGAATT | 0.999 ± 0.036
GGTATCTGTA | 1 ± 0.023
TGATAACTGG | 0.9745 ± 0.0064
GCTGGAGGTC | 1.01 ± 0.03
TTGGTGAACG | 0.989 ± 0.024
ACCCTGTGTA | 1 ± 0.021
CAATGGTTCT | 0.993 ± 0.036
CCCTGTGAGC | 1.08 ± 0.013
AAGGGGTGGT | 0.989 ± 0.032
TTACGTGGTT | 1.07 ± 0.026
ATTAGCCCGG | 0.9944 ± 0.00051
TTGGGTATAA | 0.989 ± 0.03
CGAGCCCTTA | 0.986 ± 0.059
GGGCGTAAGG | 1.01 ± 0.047
CAAGGGGCAA | 0.964 ± 0.032
CCGAATAATT | 1.08 ± 0.011
TATTTTGTCT | 1.1 ± 0.13
TACTTAGGGA | 1.031 ± 0.0085
GCCTTCGACT | 1.051 ± 0.0017
GAGACTTGGG | 1.03 ± 0.029

Sequence | switch fluorescence ratio
GGGGCCGGCG | 1.08 ± 0.11
CGGAAGAAAT | 1.02 ± 0.017
TGCGAGGATG | 1 ± 0.0028
AATTTGTTTG | 1 ± 0.013
ATAATGTCGA | 1.02 ± 0.026
CGGGTAGTGC | 1.028 ± 0.0078
GAGTATGCAT | 0.984 ± 0.023
ACTGGCGGCG | 1 ± 0.012
TAGGAAAAAG | 0.975 ± 0.013
TATAATAGAA | 0.983 ± 0.027
GTGAAAAATT | 0.9862 ± 0.0086
TGATTGAGAG | 1.016 ± 0.0025
GCAGGTTCGG | 1.01 ± 0.037
CGGGTATTTC | 1.01 ± 0.014
GGGGACATGG | 1.07 ± 0.11
AGGCAATATG | 1.19 ± 0.018
TAAGGCTTTG | 0.9987 ± 0.0068
GTGTGTTGGG | 0.984 ± 0.026
ATTTTTTGAC | 0.9915 ± 0.0011
GGGTTGGTGG | 0.992 ± 0.029
AATCAGGGGG | 1.01 ± 0.04
AGTATGACGT | 0.986 ± 0.026
TCGATGTGTT | 0.9592 ± 0.0086
CCAAGGCTTA | 1.06 ± 0.063
AACTTGGTTT | 0.961 ± 0.056

Sequence | switch fluorescence ratio
AACGGCGCCA | 0.983 ± 0.025
ATTCATGCTC | 1.03 ± 0.031
TGGGTAAAGC | 1.03 ± 0.017
GGTCCTTAAT | 0.989 ± 0.025
TGATTCTCTT | 1 ± 0.027
GATGTTGTTT | 1.03 ± 0.056
TTCGTGTATC | 0.999 ± 0.011
CTAATAATCG | 1 ± 0.015
GAGGAACCGG | 1.05 ± 0.021
CGGTTATTTA | 1.04 ± 0.011
TAGAAATTGT | 0.997 ± 0.039
TGCTTTAAAG | 1 ± 0.037
AAAATTTAAA | 1 ± 0.051
GCTTCAGGGT | 0.989 ± 0.025
TCAAATTAGA | 0.966 ± 0.026
TACAGTAGAT | 1.06 ± 0.038
TTAGGGTTGT | 1 ± 0.023
TTATGGGAGA | 1.04 ± 0.042
TACAAGTTTT | 0.986 ± 0.0093
GCAGGTAGGG | 0.998 ± 0.039
GGAGGGGTTG | 1.04 ± 0.015
TTGGGAAGTA | 0.985 ± 0.016
ATTTCAGGGG | 1.09 ± 0.061
TGGAGTTTAA | 1 ± 0.026
TGGCAGTAAA | 1.02 ± 0.039

Sequence | switch fluorescence ratio
AATTGTGTTT | 1.01 ± 0.021
GTGTTCTAAA | 1.03 ± 0.041
AAATCTGTAA | 1.03 ± 0.06
ATAAGGGCTA | 0.99 ± 0.031
TAGGTTGGGT | 0.992 ± 0.0089
CGGTTAGTTC | 0.946 ± 0.023
CTGTCATGGG | 0.9952 ± 0.0063
TGGCACGTAT | 1.09 ± 0.03
GTCGAGGATG | 1.018 ± 0.0049
CGGAGGGAAA | 0.963 ± 0.033
GGGTTAAGTA | 0.993 ± 0.031
TCAGGGACCG | 1.03 ± 0.026
GCTGTTACGG | 0.983 ± 0.016
TTTATAGGGA | 0.987 ± 0.015
TGGTAGTGCT | 1.01 ± 0.018
TAAAGCGTTG | 0.9656 ± 0.0077
CGGGCAGGGC | 1.04 ± 0.019
GTGTCCGGGC | 0.979 ± 0.025
TTTGAATTTG | 0.974 ± 0.023
TAAGGGCGGT | 0.957 ± 0.032
ACTGATACGT | 1.12 ± 0.017
GCTGCTAGTG | 0.97 ± 0.017
GACGGTCATG | 0.995 ± 0.018
GATTCCGGAC | 1.032 ± 0.0054
TTAACGTAGA | 1.04 ± 0.015

Sequence | switch fluorescence ratio
CAAAGGTTGC | 1 ± 0.013
CGGGAGTGCG | 1.02 ± 0.024
TTAATAGTGT | 1 ± 0.013
ATAACTTGGG | 0.994 ± 0.041
TATTTGGGTA | 0.987 ± 0.026
TGGTGGGTAT | 0.999 ± 0.024
TTGAATGTTG | 1.004 ± 0.0037
ATCTGGAACG | 0.988 ± 0.02
CGGCTGACGA | 1.03 ± 0.041
GGAAATGTCG | 0.918 ± 0.078
ATGTGGGCTA | 0.992 ± 0.03
CTTAGTATAG | 0.998 ± 0.032
ATCATGATTC | 0.983 ± 0.018
TAAGAGCCAT | 1.04 ± 0.013
CCCATTTTGC | 1.032 ± 0.0067
TGGATAGGTA | 0.995 ± 0.023
GATGAAGACT | 1 ± 0.067
TTTTTTTTTT | 1.01 ± 0.083
TTACTGTGTT | 1 ± 0.034
TTGTAGGTAT | 0.999 ± 0.069
AGTCAGGTT | 1.02 ± 0.019
TTACGGGAAT | 1.08 ± 0.1
GAGCAGCATT | 1.05 ± 0.014
GTTTTCTGGA | 0.9988 ± 0.0057
TATGTAGAAG | 1 ± 0.027

Sequence | switch fluorescence ratio
GCGGTACTGC | 0.999 ± 0.019
AAGGTTAGTT | 1.003 ± 0.0083
GTTCTTTTAT | 1.01 ± 0.024
CCATTAATAG | 1.04 ± 0.057
GCTATATAGT | 1.01 ± 0.011
ACGAAAGTCA | 1.052 ± 0.01
TTTGTTCACG | 0.991 ± 0.01
GGATTTACGT | 1.02 ± 0.023
AATATGATAA | 1.01 ± 0.053
TAAAAATTTG | 1.07 ± 0.082
CAGCTGTCGG | 1.1 ± 0.12
TGGTGGCCGG | 1.02 ± 0.019
TTGCTTCGGG | 0.968 ± 0.028
TGACGGGCAG | 1.07 ± 0.015
GATATAGGCG | 1.05 ± 0.047
GAAGGGCGTT | 0.98247 ± 0.00082
ACACCCGCGC | 1.45 ± 0.064
ACAAGATTTT | 0.9788 ± 0.0046
GCTCTTTGAC | 0.987 ± 0.029
ACGAAGGGGG | 1.14 ± 0.24
ACTGTGCCGG | 1.02 ± 0.043
AATTTTTCTG | 0.9869 ± 0.008
GGGTGAATGG | 0.9976 ± 0.0016
TCGATACTTT | 1.03 ± 0.021
ATTGTAGTCA | 0.973 ± 0.019

Sequence | switch fluorescence ratio
ATAACAGGTA | 1.009 ± 0.005
GTTGTTACTG | 1.02 ± 0.019
TTTCAATAGT | 1.09 ± 0.14
AGGAGGCGTT | 0.992 ± 0.029
TCCGCAGATT | 4.02 ± 0.047
TAGGGACGTT | 0.988 ± 0.013
CTGTGGGGGT | 1.04 ± 0.012
GCGAGGGTCG | 1.01 ± 0.043
AGAATAATGG | 1 ± 0.022
TGACTTTTTA | 0.9933 ± 0.0075
GTCCAAAAAC | 1.15 ± 0.038
CCGGTTTGGA | 1.13 ± 0.17
TCATGAAGGA | 0.964 ± 0.018
CGGTAGGATG | 0.971 ± 0.011
TTTGGTGGCA | 0.9992 ± 0.0099
CAGGAACTTG | 0.956 ± 0.023
GTAATTGGGA | 1.022 ± 0.0011
ATATGTCAAG | 1.0025 ± 0.00017
AATGTTTTGT | 0.994 ± 0.021
GGGGAGTAGT | 1.01 ± 0.024
TGGGCCGAGG | 1.12 ± 0.063
TTCAGGTGCC | 1.46 ± 0.04
TGCTGGGTCC | 1.02 ± 0.02
GGAACAGGGT | 0.934 ± 0.072
CAGAGGGCTA | 1.03 ± 0.038
